Test results as given in patent US20210371529A1 (Innovent, published 2021).

T1: human LAG-3 overexpressed on HEK293 cells (human, UniProt P18627 23-525)
T1 construct: whole, on cells; also called 293-hLAG-3 cells; hLAG-3 on the cell surface
T1 sequence (looked up): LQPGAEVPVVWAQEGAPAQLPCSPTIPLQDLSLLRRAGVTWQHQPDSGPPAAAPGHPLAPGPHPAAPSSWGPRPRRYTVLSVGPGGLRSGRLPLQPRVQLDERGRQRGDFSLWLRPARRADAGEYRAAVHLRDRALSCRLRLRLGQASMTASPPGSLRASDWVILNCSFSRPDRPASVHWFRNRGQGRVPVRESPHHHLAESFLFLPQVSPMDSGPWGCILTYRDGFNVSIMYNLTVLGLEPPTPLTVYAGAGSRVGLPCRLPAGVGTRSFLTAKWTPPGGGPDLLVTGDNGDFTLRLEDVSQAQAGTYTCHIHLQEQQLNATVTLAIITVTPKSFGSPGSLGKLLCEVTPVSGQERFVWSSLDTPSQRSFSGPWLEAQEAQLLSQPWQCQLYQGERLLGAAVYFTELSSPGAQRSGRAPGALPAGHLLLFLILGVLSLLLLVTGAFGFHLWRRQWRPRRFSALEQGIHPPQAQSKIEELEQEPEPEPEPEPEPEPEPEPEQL

T2: rhLAG3 protein (huFc) (human, UniProt P18627 23-450, limits assumed)
T2 construct: Bought Fc fusion; also called antigen rhLAG3 protein (huFc) (Sino Biological); human LAG-3; not shown: human Fc
T2 sequence (looked up): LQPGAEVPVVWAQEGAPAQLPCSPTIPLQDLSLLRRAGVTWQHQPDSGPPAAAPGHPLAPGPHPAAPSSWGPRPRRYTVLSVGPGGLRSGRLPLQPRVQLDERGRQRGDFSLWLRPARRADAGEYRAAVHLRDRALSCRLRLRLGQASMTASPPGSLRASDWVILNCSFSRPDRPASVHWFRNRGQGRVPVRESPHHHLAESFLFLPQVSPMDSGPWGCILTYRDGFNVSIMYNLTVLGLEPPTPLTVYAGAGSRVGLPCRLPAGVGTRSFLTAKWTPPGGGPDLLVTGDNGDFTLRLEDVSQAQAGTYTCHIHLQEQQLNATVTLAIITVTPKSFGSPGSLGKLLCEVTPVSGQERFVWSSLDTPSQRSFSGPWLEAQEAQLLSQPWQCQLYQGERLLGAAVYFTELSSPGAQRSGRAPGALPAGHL

T3: human LAG-3-His (human, UniProt P18627 23-450)
T3 construct: Bought antigen (ArcoBiosystems), 100 nM in solution in the ForteBio assay; also called human LAG-3 antigen (ArcoBiosystems); hLAG-3; not shown: His tag
T3 sequence (looked up): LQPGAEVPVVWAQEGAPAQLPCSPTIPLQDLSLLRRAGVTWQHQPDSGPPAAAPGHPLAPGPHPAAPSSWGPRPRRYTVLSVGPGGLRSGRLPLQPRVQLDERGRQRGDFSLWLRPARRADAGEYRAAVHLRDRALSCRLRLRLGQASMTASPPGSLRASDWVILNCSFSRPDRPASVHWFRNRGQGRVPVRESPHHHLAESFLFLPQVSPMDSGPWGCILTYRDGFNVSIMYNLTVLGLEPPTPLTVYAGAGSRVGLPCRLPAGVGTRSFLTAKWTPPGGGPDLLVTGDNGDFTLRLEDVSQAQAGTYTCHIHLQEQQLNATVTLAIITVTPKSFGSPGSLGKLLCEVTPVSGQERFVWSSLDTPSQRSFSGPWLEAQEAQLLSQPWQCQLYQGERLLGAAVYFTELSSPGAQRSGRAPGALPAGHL


How the values were obtained:
[1] = biological target: T1, human LAG-3 overexpressed on HEK293 …; test: flow cytometry on 293-hLAG-3 cells, MFI curve
Description: The binding of the 4 exemplary antibodies of the invention described above to human LAG-3 was measured in a flow cytometry-based assay. 293 cells (293-hLAG-3 cells) over-expressing human LAG-3 were generated by transfecting human embryonic kidney 293 cells (Invitrogen) with pCHO1.0 vectors (Invitrogen) carrying human LAG-3 cDNA (Sino Biological) cloned into multiple cloning sites (MCSs). 293-hLAG-3 cells (0.2×10⁶ cells) were mixed with different concentrations of antibodies (ADI-26789, ADI-26869 and reference 25F7) prepared as described above (the antibodies were serially three-fold diluted from a maximum concentration of 500 nM in PBS containing 0.1% bovine serum albumin (BSA) until the 8th concentration). The cells were incubated on ice for 30 min. The cells were then washed at least twice prior to addition of a secondary antibody (a PE-labeled goat anti-human IgG antibody, Southern Biotech, final concentration […]) diluted in 1:100, and incubated on ice (protected from light) for 30 minutes. The cells were washed at least twice and analyzed by flow cytometry. The flow cytometry assay was performed on an Accuri C6 system (BD Biosciences), and a concentration-dependent curve was fitted with GraphPad according to the mean fluorescence intensity (MFI).

rhLAG3 protein (huFc) = biological target: T2, rhLAG3 protein (huFc); test: flow cytometry, blocking of rhLAG3 (huFc) 20 nM binding to HLA-DR on CHO-DR cells
Description: Antigen rhLAG3 protein (huFc) (Sino Biological) was diluted to 40 nM, 50 μL/well. […] 50 μL of the diluted antibodies was added to each well, and incubated in PBS on ice for 30 min. The final antigen concentration was 20 nM and the maximum antibody concentration was 40 nM. The CHO-DR cells were adjusted to 3×10⁵ cells/well, 100 μL/well. The cells were centrifuged at 300 g for 5 min. The supernatant was discarded. Then the cells were resuspended in an antigen-antibody mixture. The mixture was incubated on ice for 30 min. PBS was added, 100 μL/well. After centrifugation at 300 g for 5 min, the mixture was washed with PBS once. 100 μL of goat anti-human IgG-PE (Southern Biotech) diluted in 1:100 was added to each well. After a 20-min ice bath, PBS was added, 100 μL/well. The mixture was centrifuged at 300 g for 5 min, prior to one wash with PBS. The cells were resuspended with 100 μL of PBS. The cell fluorescence signal values were measured by flow cytometry (BD Biosciences).

human LAG-3-His = biological target: T3, human LAG-3-His; test: BLI (ForteBio), antibody on AHQ tip, human LAG-3-His 100 nM in solution, univalent
Description: The purified antibody obtained as described above was loaded on-line onto an AHQ sensor (ForteBio) for ForteBio affinity assay. The sensor with the loaded antibody was then exposed to 100 nM of a human LAG-3 antigen (ArcoBiosystems) for 5 minutes before transferring the sensor to the assay buffer for dissociation for 5 minutes for dissociation rate measurement. Kinetic analysis was performed using a 1:1 binding model.

EC50 [1] [nM]	IC50 (rhLAG3 protein (huFc)) [nM]	Kd (human LAG-3-His) [nM]	Binder
0.501	5.85	0.606	ADI-31851 (antibody, human IgG4 S228P, kappa, F234A L235A, V domains shown, IgG4 heavy chain constant region with kappa light chain; expressed in HEK293 cells) VH: QLQLQESGPGLVKPSETLSLTCTVSGGSISSPDYYWGWIRQPPGKGLEWIGSIVYSGYTYYNPSLKSRVTISVDTSKNQFSLKLSSVTAADTAVYYCARVRTWDQSFDIWGQGTMVTVSS VL: DIQMTQSPSSLSASVGDRVTITCQAGQDISNYLNWYQQKPGKAPKLLIYDASNLETGVPSRFSGSGSGTDFTFTISSLQPEDIATYYCQQVLELPPWTFGGGTKVEIKR
0.433	4.53	0.622	ADI-31853 (antibody, human IgG4 S228P, kappa, F234A L235A, V domains shown, IgG4 heavy chain constant region with kappa light chain; expressed in HEK293 cells) VH: QLQLQESGPGLVKPSETLSLTCTVSGGSIYSESYYWGWIRQPPGKGLEWIGSIVYSGYTYYNPSLKSRVTISVDTSKNQFSLKLSSVTAADTAVYYCARVRTWDAAFDIWGQGTMVTVSS VL: DIQMTQSPSSLSASVGDRVTITCQASQDISNYLNWYQQKPGKAPKLLIYDASNLETGVPSRFSGSGSGTDFTFTISSLQPEDIATYYCQQVLELPPWTFGGGTKVEIKR
